{"source": "patent US20250019452A1", "about": "(Sanofi, published 2025)", "key": {"[1]": {"biological_target": "T1, FcgammaRIIIa (V158) expressed on Jurkat effector cells (UniProt P08637 17-254, limits assumed)", "T1 construct": "whole, on cells; also called FcγRIII; Fc receptor of the effector cells", "assay": "cell based ADCC reporter gene assay, Jurkat FcgammaRIIIa (V158) effector cells with CHO IL1R3 target cells", "experimental": "The anti-IL-1R3 antibody in IgG1-LALA and IgG4-P-FALA format was tested for any ADCC activity using a reporter gene assay (iLite ADCC Bioassay #BM5001, SVAR Life Sciences, Malmö). This assay uses reporter-gene-carrying effector cells (Jurkat cells expression FcgammaRIIIa (V158)) that are used in conjunction with target cells that express the specific antigen at constant high levels (i.e. CHO ILIR3 target cells). Binding of the antibody to the target cell and binding of the effector cell to the Fc receptor of the antibody results in expression of the firefly luciferase reporter gene in the effector cell. The promoter of the firefly luciferase in the effector cells includes binding sites for NfkB, AP1, NFAT, CRE and STAT and thus includes the five principal transcription factors of the FcγRIII signal transduction pathway. The effector cells further comprise Renilla luciferase for normalization purposes."}, "[2]": {"biological_target": "T2, IL-1R3 (human, UniProt Q9NPH3 21-570)", "T2 sequence (looked up)": "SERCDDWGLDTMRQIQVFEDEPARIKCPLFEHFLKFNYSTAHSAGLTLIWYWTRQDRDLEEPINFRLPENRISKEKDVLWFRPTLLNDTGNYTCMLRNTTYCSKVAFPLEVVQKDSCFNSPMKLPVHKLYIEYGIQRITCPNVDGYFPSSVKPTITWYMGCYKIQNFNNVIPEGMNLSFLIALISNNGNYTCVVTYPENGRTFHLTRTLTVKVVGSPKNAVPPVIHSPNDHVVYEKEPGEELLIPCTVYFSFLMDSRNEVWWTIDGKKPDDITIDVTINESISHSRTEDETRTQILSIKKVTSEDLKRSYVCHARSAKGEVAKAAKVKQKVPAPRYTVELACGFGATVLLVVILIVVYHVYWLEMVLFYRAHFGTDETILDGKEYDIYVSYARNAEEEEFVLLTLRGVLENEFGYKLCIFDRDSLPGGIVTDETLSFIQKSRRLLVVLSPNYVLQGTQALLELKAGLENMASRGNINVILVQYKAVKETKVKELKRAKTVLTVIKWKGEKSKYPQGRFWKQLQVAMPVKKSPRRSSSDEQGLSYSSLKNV", "assay": "cell-based or functional assay"}}, "data": [{"binder": "anti-IL-1R3-IgG4-P-FALA (antibody, Humanized antibody, human IgG4 backbone with S228P, F234A, L235A (EU) in the Fc region; also called anti-IL-1R3 IgG4-P-FALA Ab; aIL-1R3-IgG4; copies: 2 + 2) heavy: not shown light: DVQMTQSPSSLSASVGDRVTITCQASQSIYSFLSWYQQKPGQAPKLLIYAASDLESGVPSRFSGSGSGTDFTLTISSLQPEDFATYYCQSNYIIDYGAFGQGTKVVIKRTVAAPSVFIFPPSDEQLKSGTASVVCLLNNFYPREAKVQWKVDNALQSGNSQESVTEQDSKDSTYSLSSTLTLSKADYEKHKVYACEVTHQGLSSPVTKSFNRGEC", "values": [{"measurement": "binding result", "setting": "[1]", "value": "no binding"}, {"measurement": "IL8 release_hIL1b & hIL33 & IL36g, rel IC50 in nM", "setting": "[2]", "value": 8.5, "unit": "nM"}, {"measurement": "IL8 release_hIL1b & hIL36g, rel IC50 in nM", "setting": "[2]", "value": 2.38, "unit": "nM"}, {"measurement": "IL8 release_hIL1 beta, rel IC50 in nM", "setting": "[2]", "value": 13.4, "unit": "nM"}, {"measurement": "IL8 release_hIL33, rel IC50 in nM", "setting": "[2]", "value": 2.34, "unit": "nM"}, {"measurement": "IL8 release_hIL36g, rel IC50 in nM", "setting": "[2]", "value": 0.45, "unit": "nM"}]}]}
